For test [1], the target named is delta opioid receptor naturally expressed by NG 108-15 cells (UniProt P32300). Kind of test: Table 1, NG 108-15 column (method not described).
The target of test [2] is T1, K56 receptor (mouse delta opioid receptor encoded by clone K56) (mouse, UniProt P32300 1-372).
T1 construct: Expressed transiently in Cos-1 cells from plasmid pCDM8-K56; 371 amino acids; also called K56 protein; Cos K56
Kind of test: radioligand binding, 1 nM ^3H-DTLET on monolayer Cos-1 cells transfected with K56.

Non-standard residues stand in square brackets, D forms with d. No end group written: not given here.

As to “cyclic [D-penicillamine^2, D-penicillamine^5]-enkephalin (peptide)”, in test [1], the PKi was determined as 8.3.

B1: Tyr-D-Thr-Gly-Phe-Leu-Thr (DTLET), labelled with tritium (peptide)
peptide: Y[dT]GFLT
modifications: not fully specified
notes: Synthetic delta-selective enkephalin analogue used as the radioligand; also called ^3H-DTLET
In the case of B1, the signal over background in test [2] is 6 fold.

The record behind these values is patent US6562587 (ASTRA PHARMA, dated 2003).
